Experimental data reported in patent US20070298510A1 (CANON, published 2007).

Target: T1, hen egg-white lysozyme (hen, UniProt P00698 19-147)
T1 construct: In solution in phosphate-buffered saline, captured in a sandwich between the first and second peptide molecules; also called HEL; target substance 173
Test: sandwich on TMR element: immobilized scFv, HEL, Fab on magnetic beads; magnetic read-out

T1 sequence (P00698 19-147): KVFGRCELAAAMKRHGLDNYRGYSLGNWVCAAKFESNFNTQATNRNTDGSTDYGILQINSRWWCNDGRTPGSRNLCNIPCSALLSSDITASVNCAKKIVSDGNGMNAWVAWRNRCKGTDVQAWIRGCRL

binding result: binds
B1: HyHEL10 scFv (single chain Fv of an anti-HEL antibody) (scFv)
scFv: DIVLTQSPATLSVTPGNSVSLSCRASQSIGNNLHWYQQKSHESPRLLIKYASQSISGIPSRFSGSGSGTDFTLSINSVETEDFGMYFCQQSNSWPYTFGGGTKLIITAGGGGSGGGGSGGGGSDIQLQESGPSLVKPSQTLSLTCSVTGDSITSDYWSWIRKFPGNRLEYMGYVSYSGSTYYNPSLKSRISITRDTSKNQYYLDLNSVTTEDTATYYCANWDGDYWGQGTLVTVSA
notes: Purified as a His-tag-fused polypeptide; In the assay it was immobilized on the silicon film or substrate via aminosilane and glutaraldehyde; also called scFv of the anti-HEL antibody; scFv of the HEL antibody
